Data: patent US20200371091A1, “BCMA-TARGETING CHIMERIC ANTIGEN RECEPTOR, AND USES THEREOF” (Novartis AG, priority 2017, published 2020)

Assays:
[1] = type: in vivo; details: subject 03; 1.5 g/m2 on day 17 after high-dose steroids without improvement
[2] = target: BCMA (B-cell maturation antigen) on the surface of cell lines (UniProt Q02223); test: flow cytometry on HBL-1 cells; Quantum Simply Cellular quantification kit
[3] = target: BCMA (B-cell maturation antigen) on the surface of cell lines (UniProt Q02223); test: flow cytometry on SuDHL-6 cells; Quantum Simply Cellular quantification kit

BCMA (B-cell maturation antigen) on the surface of cell lines, sequence (Q02223 whole entry): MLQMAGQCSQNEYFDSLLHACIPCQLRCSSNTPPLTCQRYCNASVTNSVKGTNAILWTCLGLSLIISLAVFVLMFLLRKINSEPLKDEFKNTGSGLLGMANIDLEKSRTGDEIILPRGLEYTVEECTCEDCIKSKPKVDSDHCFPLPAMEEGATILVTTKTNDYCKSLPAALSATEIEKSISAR

antibody binding capacity (ABC) [2]	antibody binding capacity (ABC) [3]	Compound	time to rapid neurologic improvement of PRES-like grade 4 neurotoxicity [1] [hours]
		O=P1(N(CCCl)CCCl)NCCCO1 (stereo not drawn) [cyclophosphamide]	≤ 48
> 5000	> 5000	PE-labeled anti-BCMA antibody (Biolegend, cat #357504)	
